B1: library; numbered along this chain (parent)
chain: MAAAGGARLLRAASAVLGGPAGRWLHHAGSRAGSSGLLRNRGPGGSAEASRSLSVSARARSSSEDKITVHFINRDGETLTTKGKVGDSLLDVVVENNLDIDGFGACEGTLACSTCHLIFEDHIYEKLDAITDEENDMLDLAYGLTDRSRLGCQICLTKSMDNMTVRVPETVADARQSIDVGKTS

Variants of: B1
Test: scaled log2 fold change in cell abundance, elesclomol vs control (0 = silent mean, 1 = nonsense mean) (scaled log2 ratio); higher = higher viability under elesclomol (loss of FDX1 cuproptosis function)
Conditions: glucose 10 mM
[1] = with ABC1 FDX1 KO, elesclomol 5 nM, 14 days
[2] = with HEK293T FDX1 KO, elesclomol 40 nM, 11 days
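Note: variant abundance is its share of total variant reads in each endpoint sample, from next-generation sequencing of the integrated ORF PCR-amplified out of genomic DNA.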

Variant | scaled log2 fold change [1] | scaled log2 fold change [2]
MAAAGGARLLRAASAVLGGPTGRWLHHAGSRAGSSGLLRNRGPGGSAEASRSLSVSARARSSSEDKITVHFINRDGETLTTKGKVGDSLLDVVVENNLDIDGFGACEGTLACSTCHLIFEDHIYEKLDAITDEENDMLDLAYGLTDRSRLGCQICLTKSMDNMTVRVPETVADARQSIDVGKTS | -0.223 | -0.058
MAAAGGARLLRAPSAVLGGPAGRWLHHAGSRAGSSGLLRNRGPGGSAEASRSLSVSARARSSSEDKITVHFINRDGETLTTKGKVGDSLLDVVVENNLDIDGFGACEGTLACSTCHLIFEDHIYEKLDAITDEENDMLDLAYGLTDRSRLGCQICLTKSMDNMTVRVPETVADARQSIDVGKTS | 0.188 | 
MAAAGGARLLRAASAVLGGPAMRWLHHAGSRAGSSGLLRNRGPGGSAEASRSLSVSARARSSSEDKITVHFINRDGETLTTKGKVGDSLLDVVVENNLDIDGFGACEGTLACSTCHLIFEDHIYEKLDAITDEENDMLDLAYGLTDRSRLGCQICLTKSMDNMTVRVPETVADARQSIDVGKTS | 0.793 | 
MAAAGGARLLRAASAVLGGPAGRWLHHAVSRAGSSGLLRNRGPGGSAEASRSLSVSARARSSSEDKITVHFINRDGETLTTKGKVGDSLLDVVVENNLDIDGFGACEGTLACSTCHLIFEDHIYEKLDAITDEENDMLDLAYGLTDRSRLGCQICLTKSMDNMTVRVPETVADARQSIDVGKTS | -0.87 | 
MAAAGGARLLRAASAVLGGPAGRWLHHAGSRAGSSGLLRNRGPGGSAEASRSLSVSARARSSSEDKITVHFINRDGETLTTKGKVGDSLLDVVVENNLDIDGFGACEGTLACSTCHLIFEDHIYEKLDGITDEENDMLDLAYGLTDRSRLGCQICLTKSMDNMTVRVPETVADARQSIDVGKTS | 0.16 | 
MAAAGGARLLRAASAVLGGPAGRWLHHAGSRAGSSGLLRNRGPGGSAEASRSLSVSARARSSSEDKITVHFINRDGETLTTKGKVGDSLLDVVVENNLDIDGFGACEGTLACSTCHLIFEDHIYEYLDAITDEENDMLDLAYGLTDRSRLGCQICLTKSMDNMTVRVPETVADARQSIDVGKTS | -0.263 | 0.0548
MAAAGGARLLRAASAVLGGPAGRWLHHAGSRAGSSGLLRNRGPGGSAEASRSLSVSARARSSSEDKITVHFINRDGETLTTKGKVGDSLLDVVVENNLDIDGFGACEGTLACSTCHLIFEDHIYEKLDAIPDEENDMLDLAYGLTDRSRLGCQICLTKSMDNMTVRVPETVADARQSIDVGKTS | 0.137 | -0.104
MAAAGGARLLRAASAVLGGPAGRKLHHAGSRAGSSGLLRNRGPGGSAEASRSLSVSARARSSSEDKITVHFINRDGETLTTKGKVGDSLLDVVVENNLDIDGFGACEGTLACSTCHLIFEDHIYEKLDAITDEENDMLDLAYGLTDRSRLGCQICLTKSMDNMTVRVPETVADARQSIDVGKTS | -0.318 | -0.743
MAAAGGARLLRAASAVLGGPAGRWLHHAGSRAGSSGLLRNRGPGGSAEASRSLSVSARARSISEDKITVHFINRDGETLTTKGKVGDSLLDVVVENNLDIDGFGACEGTLACSTCHLIFEDHIYEKLDAITDEENDMLDLAYGLTDRSRLGCQICLTKSMDNMTVRVPETVADARQSIDVGKTS | 0.0619 | -0.0402
MAAAGGARLLRAASAVLGGPAGRWLHHAGSRAGSSGLLRNRGPGGSAEASRSLSVSARARSSSEDKITVHFICRDGETLTTKGKVGDSLLDVVVENNLDIDGFGACEGTLACSTCHLIFEDHIYEKLDAITDEENDMLDLAYGLTDRSRLGCQICLTKSMDNMTVRVPETVADARQSIDVGKTS | -0.441 | -0.308
MAAAGGARLLRAASAVLGGPAGRWLHHAGSRAGSSGLLRNRGPGGSAEASRSLSVSARARSSSEDKITVHFINRDGETLTTKGKVGDSLLDVVVENNLDIDGFGACEGTLADSTCHLIFEDHIYEKLDAITDEENDMLDLAYGLTDRSRLGCQICLTKSMDNMTVRVPETVADARQSIDVGKTS | 0.906 | 2.02
MAAAGGARLLRAASAVLGGPAGRWLHHAGSRAGSSGCLRNRGPGGSAEASRSLSVSARARSSSEDKITVHFINRDGETLTTKGKVGDSLLDVVVENNLDIDGFGACEGTLACSTCHLIFEDHIYEKLDAITDEENDMLDLAYGLTDRSRLGCQICLTKSMDNMTVRVPETVADARQSIDVGKTS | -0.0306 | 
MAAAGGARLLRAASAVLGGPAGRWLHHAGSRAGSSGLLRNRGPGGSAEASRSLSVSARARSSSEDKITVHFINRDGETLTTKGKMGDSLLDVVVENNLDIDGFGACEGTLACSTCHLIFEDHIYEKLDAITDEENDMLDLAYGLTDRSRLGCQICLTKSMDNMTVRVPETVADARQSIDVGKTS | 0.00542 | -0.0343
MAAAGGARLLRAASAVLGGPAGRWLHHAGSRAGSSGLLRNRGPGGSAEASRSLSVSARARSSSEDKITVHFINRDGETLTTKGKVGDSLLDVVVENNLDIDGFGACEGTLACSTCHLIFEDHIYEKLDAITDEENDMLDLAYGLTDRSRLGCQICLTKSMDNMTVRVPETVADARRSIDVGKTS | -0.155 | 0.492
MAAAGGARLLRAASAVLGGPAGRWLHHAGSRAGSSGLLRNRGPGGSAEASRSLSVSARARSSSEDKITVHFINRDGETLTTKGKVGDSLLDVVVENNKDIDGFGACEGTLACSTCHLIFEDHIYEKLDAITDEENDMLDLAYGLTDRSRLGCQICLTKSMDNMTVRVPETVADARQSIDVGKTS | 0.356 | 0.0251
MAAAGGARLLRAASAVLGGPAGRWLHHAGSRAGSSGLLRNRGPGGSAEASRSLSVSARARSSSEDKITVHFINRDGETLTTKGKVGDSLLDVVVENNLDIDGFGACEGTLACSTCHLIFEDHIYEKLDAITDEENDMLDLAYGLTDRSRLGCQICLTKSMDNMTVRVPETVADARQSIDVGKTV | 0.362 | 0.648
MAAAGGARLLRAASAVLGGPAGRWLHHAGSRAGSSGLLRNRGPGGSAEASRSLSVSARARSSSEDKITVHFINRDGETLTTKGKVGDSLLDVVVENNLDIDGFGACEGTLACHTCHLIFEDHIYEKLDAITDEENDMLDLAYGLTDRSRLGCQICLTKSMDNMTVRVPETVADARQSIDVGKTS | 0.269 | -0.884
MAAAGGARLLRAASAVLGGPAGRWLHHAGSRAGSSGLLRNRGPGGSAEASRSLSVSARARSSSERKITVHFINRDGETLTTKGKVGDSLLDVVVENNLDIDGFGACEGTLACSTCHLIFEDHIYEKLDAITDEENDMLDLAYGLTDRSRLGCQICLTKSMDNMTVRVPETVADARQSIDVGKTS | -0.395 | -0.257
MAAAGGARLLRAASAVLGGPAGRWLHHAGSRAGSSGLLRNRGPGGSAEASRSLSVSARARSSSEDKITVHFINRDGETLTTKGKVGDSLLDVVVENNLFIDGFGACEGTLACSTCHLIFEDHIYEKLDAITDEENDMLDLAYGLTDRSRLGCQICLTKSMDNMTVRVPETVADARQSIDVGKTS | -0.0227 | 0.0629

Source: the supplement of paper PMC12855868
